Data reported in patent US20240139329A1 (CALIFORNIA INSTITUTE OF TECHNOLOGY, published 2024).

Assays:
[1] = target: T1, human LRP6 extracellular domain (AA 20-1368) tagged with Fc (human IgG1) (human, UniProt O75581 20-1368); assay: validated interaction (cell culture potency assay and/or SPR)
T1 construct: also called human LRP6-Fc; complete human LRP6 extracellular domain; not shown: human IgG1 Fc
T1 sequence: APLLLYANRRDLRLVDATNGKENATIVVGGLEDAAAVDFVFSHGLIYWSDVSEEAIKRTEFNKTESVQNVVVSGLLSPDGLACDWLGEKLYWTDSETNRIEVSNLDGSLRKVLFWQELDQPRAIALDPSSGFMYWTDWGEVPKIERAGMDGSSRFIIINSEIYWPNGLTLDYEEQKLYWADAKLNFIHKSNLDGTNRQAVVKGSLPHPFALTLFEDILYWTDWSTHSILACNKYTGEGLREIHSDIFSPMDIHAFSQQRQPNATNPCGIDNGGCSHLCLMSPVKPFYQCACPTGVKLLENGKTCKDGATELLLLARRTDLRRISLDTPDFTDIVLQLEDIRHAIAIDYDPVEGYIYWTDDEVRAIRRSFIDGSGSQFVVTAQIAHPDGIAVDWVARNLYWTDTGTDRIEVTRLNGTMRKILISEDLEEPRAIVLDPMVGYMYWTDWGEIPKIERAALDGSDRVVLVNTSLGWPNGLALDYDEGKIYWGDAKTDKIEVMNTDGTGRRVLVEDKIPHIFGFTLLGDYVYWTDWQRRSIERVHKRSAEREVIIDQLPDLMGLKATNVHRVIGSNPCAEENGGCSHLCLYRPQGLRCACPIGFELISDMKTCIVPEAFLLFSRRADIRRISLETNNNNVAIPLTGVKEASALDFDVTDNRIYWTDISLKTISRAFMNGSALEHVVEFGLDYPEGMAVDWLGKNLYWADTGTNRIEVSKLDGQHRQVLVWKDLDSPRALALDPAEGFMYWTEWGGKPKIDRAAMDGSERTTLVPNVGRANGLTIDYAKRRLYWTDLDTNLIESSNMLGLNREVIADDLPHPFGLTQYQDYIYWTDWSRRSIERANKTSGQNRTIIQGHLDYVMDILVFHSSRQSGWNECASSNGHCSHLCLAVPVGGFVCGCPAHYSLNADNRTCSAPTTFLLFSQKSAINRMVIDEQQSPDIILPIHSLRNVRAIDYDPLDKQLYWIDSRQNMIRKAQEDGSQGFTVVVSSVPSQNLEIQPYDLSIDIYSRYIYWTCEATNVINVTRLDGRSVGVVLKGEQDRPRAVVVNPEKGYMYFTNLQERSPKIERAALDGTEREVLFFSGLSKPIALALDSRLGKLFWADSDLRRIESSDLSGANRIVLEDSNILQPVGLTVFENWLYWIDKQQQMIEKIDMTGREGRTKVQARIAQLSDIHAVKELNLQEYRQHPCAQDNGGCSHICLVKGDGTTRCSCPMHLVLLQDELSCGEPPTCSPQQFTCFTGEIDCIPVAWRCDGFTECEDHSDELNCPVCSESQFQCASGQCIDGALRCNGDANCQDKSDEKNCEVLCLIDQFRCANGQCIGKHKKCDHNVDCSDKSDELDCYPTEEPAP

[2] = target: T2, mouse LRP6 extracellular domain (AA20-1366) tagged with 6×His tag (mouse, UniProt O88572 20-1366); assay: pull-down, His-tagged bait on Ni-NTA, AAV prey, Western blot (FIG. 21)
T2 construct: also called full length extracellular domain of mouse LRP6
T2 sequence: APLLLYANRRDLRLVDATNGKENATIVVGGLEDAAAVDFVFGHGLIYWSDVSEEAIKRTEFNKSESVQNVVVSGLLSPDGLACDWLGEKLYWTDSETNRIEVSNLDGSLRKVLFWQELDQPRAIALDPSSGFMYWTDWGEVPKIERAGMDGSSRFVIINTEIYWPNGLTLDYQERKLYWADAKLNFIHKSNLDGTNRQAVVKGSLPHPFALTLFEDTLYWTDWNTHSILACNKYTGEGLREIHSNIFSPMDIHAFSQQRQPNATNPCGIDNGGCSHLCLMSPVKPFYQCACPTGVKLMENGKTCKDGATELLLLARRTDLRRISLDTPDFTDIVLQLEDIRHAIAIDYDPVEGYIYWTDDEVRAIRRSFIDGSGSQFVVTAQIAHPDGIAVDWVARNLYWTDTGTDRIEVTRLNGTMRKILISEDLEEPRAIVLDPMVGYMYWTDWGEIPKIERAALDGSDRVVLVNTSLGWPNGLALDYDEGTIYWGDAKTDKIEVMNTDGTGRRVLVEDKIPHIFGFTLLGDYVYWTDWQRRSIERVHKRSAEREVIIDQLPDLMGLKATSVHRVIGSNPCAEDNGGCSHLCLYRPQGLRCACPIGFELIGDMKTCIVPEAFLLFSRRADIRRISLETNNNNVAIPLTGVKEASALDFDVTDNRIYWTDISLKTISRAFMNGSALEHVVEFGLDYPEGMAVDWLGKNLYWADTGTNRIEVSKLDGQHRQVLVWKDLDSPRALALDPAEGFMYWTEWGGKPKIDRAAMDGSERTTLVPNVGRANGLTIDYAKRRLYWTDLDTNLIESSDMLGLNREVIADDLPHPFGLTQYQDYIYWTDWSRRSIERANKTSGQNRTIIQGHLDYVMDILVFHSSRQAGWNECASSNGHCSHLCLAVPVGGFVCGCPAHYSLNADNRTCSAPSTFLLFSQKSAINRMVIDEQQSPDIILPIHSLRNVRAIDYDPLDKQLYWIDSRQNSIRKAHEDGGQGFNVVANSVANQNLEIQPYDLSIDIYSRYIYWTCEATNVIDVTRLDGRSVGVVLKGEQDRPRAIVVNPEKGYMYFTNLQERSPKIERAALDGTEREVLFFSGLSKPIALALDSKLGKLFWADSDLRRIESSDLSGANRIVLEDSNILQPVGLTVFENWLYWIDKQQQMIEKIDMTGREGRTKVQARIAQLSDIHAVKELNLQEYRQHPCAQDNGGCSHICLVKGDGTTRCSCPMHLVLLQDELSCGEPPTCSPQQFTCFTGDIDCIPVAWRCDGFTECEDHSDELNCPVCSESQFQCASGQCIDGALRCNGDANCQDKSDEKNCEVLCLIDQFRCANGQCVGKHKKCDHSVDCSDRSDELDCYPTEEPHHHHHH

[3] = target: T3, Human Adeno-Associated Virus Receptor (AAVR) PKD2 domain (AA 401-498) tagged with 6×His (human, UniProt Q8IZA0 401-498); assay: as above
T3 construct: range 401-498; also called human AAVR PDK2 domain
T3 sequence: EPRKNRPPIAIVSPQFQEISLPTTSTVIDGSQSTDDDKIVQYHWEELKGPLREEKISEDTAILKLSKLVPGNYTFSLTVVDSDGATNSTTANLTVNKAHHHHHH

Measured: binding result

B1: AAV9-X1.1 (other)
chain: MAADGYLPDWLEDNLSEGIREWWALKPGAPQPKANQQHQDNARGLVLPGYKYLGPGNGLDKGEPVNAADAAALEHDKAYDQQLKAGDNPYLKYNHADAEFQERLKEDTSFGGNLGRAVFQAKKRLLEPLGLVEEAAKTAPGKKRPVEQSPQEPDSSAGIGKSGAQPAKKRLNFGQTGDTESVPDPQPIGEPPAAPSGVGSLTMASGGGAPVADNNEGADGVGSSSGNWHCDSQWLGDRVITTSTRTWALPTYNNHLYKQISNSTSGGSSNDNAYFGYSTPWGYFDFNRFHCHFSPRDWQRLINNNWGFRPKRLNFKLFNIQVKEVTDNNGVKTIANNLTSTVQVFTDSDYQLPYVLGSAHEGCLPPFPADVFMIPQYGYLTLNDGSQAVGRSSFYCLEYFPSQMLRTGNNFQFSYEFENVPFHSSYAHSQSLDRLMNPLIDQYLYYLSRTIDGAATKNQTLKFSVAGPSNMAVQGRNYIPGPSYRQQRVSTTVTQNNNSEFAWPGASSWALNGRNSLMNPGPAMASHKEGEDRFFPLSGSLIFGKQGTGRDNVDADKVMITNEEEIKTTNPVATESYGQVATNHQSAQGNNTRSVAQAQTGWVQNQGILPGMVWQDRDVYLQGPIWAKIPHTDGNFHPSPLMGGFGMKHPPPQILIKNTPVPADPPTAFNKDKLNSFITQYSTGQVSVEIEWELQKENSKRWNPEIQYTSNYYKSNNVEFAVNTEGVYSEPRPIGTRYLTRNL
notes: also called AAV-X1.1; X1B10
binds: all assays above

B2: AAV.CAP-Mac (other)
chain: MAADGYLPDWLEDNLSEGIREWWALKPGAPQPKANQQHQDNARGLVLPGYKYLGPGNGLDKGEPVNAADAAALEHDKAYDQQLKAGDNPYLKYNHADAEFQERLKEDTSFGGNLGRAVFQAKKRLLEPLGLVEEAAKTAPGKKRPVEQSPQEPDSSAGIGKSGAQPAKKRLNFGQTGDTESVPDPQPIGEPPAAPSGVGSLTMASGGGAPVADNNEGADGVGSSSGNWHCDSQWLGDRVITTSTRTWALPTYNNHLYKQISNSTSGGSSNDNAYFGYSTPWGYFDFNRFHCHFSPRDWQRLINNNWGFRPKRLNFKLFNIQVKEVTDNNGVKTIANNLTSTVQVFTDSDYQLPYVLGSAHEGCLPPFPADVFMIPQYGYLTLNDGSQAVGRSSFYCLEYFPSQMLRTGNNFQFSYEFENVPFHSSYAHSQSLDRLMNPLIDQYLYYLSRTINGSGQNQQTLKFSVAGPSNMAVQGRNYIPGPSYRQQRVSTTVTQNNNSEFAWPGASSWALNGRNSLMNPGPAMASHKEGEDRFFPLSGSLIFGKQGTGRDNVDADKVMITNEEEIKTTNPVATESYGQVATNHQSAQLNTTKPIAQAQTGWVQNQGILPGMVWQDRDVYLQGPIWAKIPHTDGNFHPSPLMGGFGMKHPPPQILIKNTPVPADPPTAFNKDKLNSFITQYSTGQVSVEIEWELQKENSKRWNPEIQYTSNYYKSNNVEFAVNTEGVYSEPRPIGTRYLTRNL
notes: also called CAP-C1
binds: all assays above
